From US20150259426A1 (Novartis, published 2015)
Like-named read-outs stand apart in the source and are kept apart here. Blank lines part the entries; values can stand above or below the binder they belong to.

Experiments:
[1] = target: T1, hGITR (human, UniProt Q9Y5U5); experiment: ELISA, receptor ECD from E. coli lysate on His capture plate;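 note: binding specificity screen across TNF receptor superfamily ectodomains, anti-V5 detection as expression reference, primary antibody incubation 1 h at room temperature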
T1 construct: extracellular domain, E. coli lysate captured on a His capture plate; Target named only on the sheet; the construct is not described in the text
T1 sequence (extracellular domain, looked up): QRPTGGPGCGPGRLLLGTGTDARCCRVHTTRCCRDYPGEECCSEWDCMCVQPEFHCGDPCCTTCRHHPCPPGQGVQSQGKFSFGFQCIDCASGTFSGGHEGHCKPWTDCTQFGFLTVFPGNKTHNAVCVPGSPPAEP

[2] = target: T2, CD27 extracellular domain (TNFRSF7, Thr21-Ser187) (UniProt P26842 21-187); experiment: as above
T2 construct: range 21-187; ECD cloned into pBadThioTopo; E. coli lysate on His capture plates
T2 sequence (P26842 21-187 limits assumed): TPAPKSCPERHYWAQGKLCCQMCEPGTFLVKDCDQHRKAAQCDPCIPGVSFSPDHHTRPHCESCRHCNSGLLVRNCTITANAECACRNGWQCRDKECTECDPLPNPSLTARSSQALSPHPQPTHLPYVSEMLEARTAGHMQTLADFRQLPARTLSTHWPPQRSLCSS

[3] = target: T3, OPG (TNFRSF11B, Lys17-Ile197) (UniProt O00300 17-197); experiment: as above
T3 construct: range 17-197; ECD cloned into pBadThioTopo; E. coli lysate on His capture plates
T3 sequence (looked up): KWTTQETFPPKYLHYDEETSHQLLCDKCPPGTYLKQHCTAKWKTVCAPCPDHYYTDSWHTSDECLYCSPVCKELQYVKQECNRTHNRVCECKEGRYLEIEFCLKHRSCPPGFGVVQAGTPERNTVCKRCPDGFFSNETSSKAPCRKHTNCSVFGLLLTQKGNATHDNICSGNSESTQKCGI

[4] = target: T4, DcR2 extracellular domain (TNFRSF10D, Thr57-Thr198) (UniProt Q9UBN6 57-198); experiment: as above
T4 construct: range 57-198; ECD cloned into pBadThioTopo; E. coli lysate on His capture plates
T4 sequence (looked up): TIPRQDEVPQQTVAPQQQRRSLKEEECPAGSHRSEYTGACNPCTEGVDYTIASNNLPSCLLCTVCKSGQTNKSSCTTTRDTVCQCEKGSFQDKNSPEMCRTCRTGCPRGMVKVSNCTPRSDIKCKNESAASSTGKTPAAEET

[5] = target: T5, DcR3 (TNFRSF6B, Val27-Ala176) (UniProt O95407 27-176); experiment: as above
T5 construct: range 27-176; ECD cloned into pBadThioTopo; E. coli lysate on His capture plates
T5 sequence (looked up): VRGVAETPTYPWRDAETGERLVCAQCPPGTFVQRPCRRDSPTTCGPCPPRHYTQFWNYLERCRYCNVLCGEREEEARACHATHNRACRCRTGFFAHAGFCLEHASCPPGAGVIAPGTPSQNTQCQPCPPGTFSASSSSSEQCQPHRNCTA

[6] = target: T6, TNFR3 extracellular domain (TNFRSF3, Pro30-Thr224) (UniProt P36941 30-224); experiment: as above
T6 construct: range 30-224; ECD cloned into pBadThioTopo; E. coli lysate on His capture plates
T6 sequence (P36941 30-224 limits assumed): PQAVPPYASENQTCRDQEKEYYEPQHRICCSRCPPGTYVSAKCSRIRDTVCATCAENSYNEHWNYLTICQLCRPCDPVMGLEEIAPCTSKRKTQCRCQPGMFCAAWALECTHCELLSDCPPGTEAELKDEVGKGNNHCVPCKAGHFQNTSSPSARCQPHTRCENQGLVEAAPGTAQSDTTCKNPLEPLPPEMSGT

[7] = target: T7, FAS extracellular domain (TNFRSF6, Ser20-Gly175) (UniProt P25445 20-175); experiment: as above
T7 construct: ECD cloned into pBadThioTopo; E. coli lysate on His capture plates
T7 sequence (looked up): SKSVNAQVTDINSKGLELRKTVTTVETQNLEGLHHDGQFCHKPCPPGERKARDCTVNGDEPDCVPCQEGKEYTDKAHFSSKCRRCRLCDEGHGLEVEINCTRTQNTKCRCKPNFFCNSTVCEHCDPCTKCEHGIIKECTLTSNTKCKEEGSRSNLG

[8] = target: T8, BAFFR extracellular domain (TNFRSF13C, Met1-Gly64) (UniProt Q96RJ3 1-64); experiment: as above
T8 construct: range 1-64; ECD cloned into pBadThioTopo; E. coli lysate on His capture plates
T8 sequence (Q96RJ3 1-64 limits assumed): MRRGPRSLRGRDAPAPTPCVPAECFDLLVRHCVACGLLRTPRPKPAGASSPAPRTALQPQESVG

[9] = target: T9, OX40 extracellular domain (TNFRSF4, Gly33-Gly212) (UniProt P43489 33-212); experiment: as above
T9 construct: ECD cloned into pBadThioTopo; E. coli lysate on His capture plates
T9 sequence (looked up): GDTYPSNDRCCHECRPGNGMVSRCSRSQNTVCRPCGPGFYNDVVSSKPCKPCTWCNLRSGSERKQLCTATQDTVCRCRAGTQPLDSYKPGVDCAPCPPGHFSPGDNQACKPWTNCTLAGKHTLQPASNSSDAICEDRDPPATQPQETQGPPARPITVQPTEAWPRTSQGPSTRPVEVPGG

[10] = target: T10, CD137 extracellular domain (TNFRSF9, Glu19-Ile188) (UniProt Q07011 19-188); experiment: as above
T10 construct: range 19-188; ECD cloned into pBadThioTopo; E. coli lysate on His capture plates
T10 sequence (Q07011 19-188 limits assumed): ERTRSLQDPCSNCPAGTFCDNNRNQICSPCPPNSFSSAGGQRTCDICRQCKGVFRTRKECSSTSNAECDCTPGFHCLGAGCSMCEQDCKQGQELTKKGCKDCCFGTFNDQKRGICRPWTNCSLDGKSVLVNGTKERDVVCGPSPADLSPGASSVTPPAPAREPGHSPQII

[11] = target: T11, TNFR1 extracellular domain (TNFRSF1A, Leu34-Thr211) (UniProt P19438 34-211); experiment: as above
T11 construct: range 34-211; ECD cloned into pBadThioTopo; E. coli lysate on His capture plates
T11 sequence (looked up): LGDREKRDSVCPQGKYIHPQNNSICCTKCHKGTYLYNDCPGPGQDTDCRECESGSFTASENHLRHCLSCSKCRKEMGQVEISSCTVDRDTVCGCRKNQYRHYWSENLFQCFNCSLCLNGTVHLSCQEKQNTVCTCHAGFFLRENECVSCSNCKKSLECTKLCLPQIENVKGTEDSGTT

[12] = target: T12, CD40 extracellular domain (TNFRSF5, Val18-Leu192) (UniProt P25942 18-192); experiment: as above
T12 construct: range 18-192; ECD cloned into pBadThioTopo; E. coli lysate on His capture plates
T12 sequence (P25942 18-192 limits assumed): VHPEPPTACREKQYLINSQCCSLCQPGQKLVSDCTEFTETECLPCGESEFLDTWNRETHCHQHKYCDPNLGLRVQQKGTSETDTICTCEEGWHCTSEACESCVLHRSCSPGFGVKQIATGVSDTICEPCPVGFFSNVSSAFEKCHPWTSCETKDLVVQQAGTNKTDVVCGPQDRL

[13] = target: T13, cell-bound human DR5 (Colo205 and other human cell lines) (human, UniProt O14763 56-440); experiment: cell-based or functional assay
[14] = target: T13, cell-bound human DR5 (Colo205 and other …); experiment: cell-based or functional assay; remark: listed apart in the source
[15] = target: T13, cell-bound human DR5 (Colo205 and other …); experiment: cell-based or functional assay; remark: listed apart in the source
[16] = target: T13, cell-bound human DR5 (Colo205 and other …); experiment: cell-based or functional assay; remark: listed apart in the source
[17] = target: T13, cell-bound human DR5 (Colo205 and other …); experiment: cell-based or functional assay; remark: listed apart in the source

binding result [1]: no binding (tested: not stated)
binding result [2]: no binding (tested: not stated)
binding result [3]: no binding (tested: not stated)
binding result [4]: no binding (tested: not stated)
binding result [5]: no binding (tested: not stated)
binding result [6]: no binding (tested: not stated)
binding result [7]: no binding (tested: not stated)
binding result [8]: no binding (tested: not stated)
binding result [9]: no binding (tested: not stated)
binding result [10]: no binding (tested: not stated)
binding result [11]: no binding (tested: not stated)
binding result [12]: no binding (tested: not stated)
EC50, caspase 3/7 in Colo205 tumor after a single dose in mice, indirect response model [14]: 1.41 ng/mg tissue
B1: 7A12 tetra (tetravalent anti-DR5 NB construct) (other)
chain: EVQLVESGGGLVQAGGSLRLSCAASGRTFSNYAMGWFRQAPGKEREFVAALNWSGGSTYYVDSVKGRFTISRDNAKNTVYLQMNSLKPEDTAVYYCAAAGSFSLGGRPYGDDYWGKGTLVTVSSGGGGSGGGGSGGGGSGGGGSGGGGSGGGGSGGGGSEVQLVESGGGLVQAGGSLRLSCAASGRTFSNYAMGWFRQAPGKEREFVAALNWSGGSTYYVDSVKGRFTISRDNAKNTVYLQMNSLKPEDTAVYYCAAAGSFSLGGRPYGDDYWGKGTLVTVSSGGGGSGGGGSGGGGSGGGGSGGGGSGGGGSGGGGSEVQLVESGGGLVQAGGSLRLSCAASGRTFSNYAMGWFRQAPGKEREFVAALNWSGGSTYYVDSVKGRFTISRDNAKNTVYLQMNSLKPEDTAVYYCAAAGSFSLGGRPYGDDYWGKGTLVTVSSGGGGSGGGGSGGGGSGGGGSGGGGSGGGGSGGGGSEVQLVESGGGLVQAGGSLRLSCAASGRTFSNYAMGWFRQAPGKEREFVAALNWSGGSTYYVDSVKGRFTISRDNAKNTVYLQMNSLKPEDTAVYYCAAAGSFSLGGRPYGDDYWGKGTLVTVSS
notes: four VHH units in one chain joined by GlySer linkers; not shown: C-terminal c-myc/His6 tag from vector pAX51
IC50, cell survival, 184A1 [13]: ≥ 20000 pM
IC50, cell survival, A549 [13]: ≥ 20000 pM
IC50, cell survival, ARPE-19 [13]: ≥ 20000 pM
IC50, cell survival, BxPC-3 [13]: 23 pM
IC50, cell survival, Colo205 [13]: 6.6 pM
IC50, cell survival, H226 [13]: ≥ 20000 pM
IC50, cell survival, H2052 [13]: 33 pM
IC50, cell survival, H2122 [13]: 3.6 pM
IC50, cell survival, HAAE-1 [13]: ≥ 20000 pM
IC50, cell survival, Huvec [13]: ≥ 20000 pM
IC50, cell survival, Jurkat [13]: 37 pM
IC50, cell survival, M30 [13]: ≥ 20000 pM
IC50, cell survival, Malme-3 [13]: ≥ 20000 pM
IC50, cell survival, MiaPaCa-2 [13]: 41 pM
IC50, cell survival, Molt4 [13]: ≥ 20000 pM
IC50, cell survival, Panc-1 [13]: ≥ 20000 pM
IC50, cell survival, WI-38 [13]: ≥ 20000 pM

B2: 11H6-hu tetra (11H6 hu tetramer) (VHH)
chain: EVQLLESGGGLVQPGGSLRLSCAASGTFDKINNMGWYRQAPGKQRDLVAQITPGGITDYADSVKGRFTISRDNSKNTLYLQMNSLRPEDTAVYYCNAEILKRAYIDVYVNYWGQGTLVTVSSGGGGSGGGGSGGGGSGGGGSGGGGSGGGGSGGGGSEVQLLESGGGLVQPGGSLRLSCAASGTFDKINNMGWYRQAPGKQRDLVAQITPGGITDYADSVKGRFTISRDNSKNTLYLQMNSLRPEDTAVYYCNAEILKRAYIDVYVNYWGQGTLVTVSSGGGGSGGGGSGGGGSGGGGSGGGGSGGGGSGGGGSEVQLLESGGGLVQPGGSLRLSCAASGTFDKINNMGWYRQAPGKQRDLVAQITPGGITDYADSVKGRFTISRDNSKNTLYLQMNSLRPEDTAVYYCNAEILKRAYIDVYVNYWGQGTLVTVSSGGGGSGGGGSGGGGSGGGGSGGGGSGGGGSGGGGSEVQLLESGGGLVQPGGSLRLSCAASGTFDKINNMGWYRQAPGKQRDLVAQITPGGITDYADSVKGRFTISRDNSKNTLYLQMNSLRPEDTAVYYCNAEILKRAYIDVYVNYWGQGTLVTVSS
IC50, cell survival, A549 [15]: > 10000 pM
IC50, cell survival, BxPC-3 [15]: 15.4 pM
IC50, cell survival, Colo205 [15]: 3.6 pM
IC50, cell survival, H226 [15]: 172 pM
IC50, cell survival, H2122 [15]: 4.1 pM
IC50, cell survival, Jurkat (72) [15]: 0.7 pM
IC50, cell survival, M30 [15]: > 10000 pM
IC50, cell survival, MiaPaCa-2 [15]: 11.7 pM
IC50, cell survival, Panc-1 [15]: 232 pM
IC50, cell survival, T24 [15]: 22.2 pM
IC50, cell survival, Colo205 [16]: 20 pM
IC50, cell survival, Jurkat [16]: 16 pM

B3: 4E6-Hu tetra (4E6 hu tetramer) (other)
chain: EVQLLESGGGLVQPGGSLRLSCAASGRTFGSIRVGWFRQAPGKGREFVSAINRNDGTTYYADSVKGRFTISRDNSKNTVYLQMNSLRPEDTAVYYCAAGLQYNRAADRVPVGAVYWGQGTLVTVSSGGGGSGGGGSGGGGSGGGGSGGGGSGGGGSGGGGSEVQLLESGGGLVQPGGSLRLSCAASGRTFGSIRVGWFRQAPGKGREFVSAINRNDGTTYYADSVKGRFTISRDNSKNTVYLQMNSLRPEDTAVYYCAAGLQYNRAADRVPVGAVYWGQGTLVTVSSGGGGSGGGGSGGGGSGGGGSGGGGSGGGGSGGGGSEVQLLESGGGLVQPGGSLRLSCAASGRTFGSIRVGWFRQAPGKGREFVSAINRNDGTTYYADSVKGRFTISRDNSKNTVYLQMNSLRPEDTAVYYCAAGLQYNRAADRVPVGAVYWGQGTLVTVSSGGGGSGGGGSGGGGSGGGGSGGGGSGGGGSGGGGSEVQLLESGGGLVQPGGSLRLSCAASGRTFGSIRVGWFRQAPGKGREFVSAINRNDGTTYYADSVKGRFTISRDNSKNTVYLQMNSLRPEDTAVYYCAAGLQYNRAADRVPVGAVYWGQGTLVTVSS
IC50, cell survival, Colo205 [17]: 12 pM
IC50, cell survival, Jurkat [17]: 2.6 pM
IC50, cell survival, A549 [15]: > 10000 pM
IC50, cell survival, BxPC-3 [15]: 29.2 pM
IC50, cell survival, Colo205 [15]: 3.4 pM
IC50, cell survival, H226 [15]: 129 pM
IC50, cell survival, H2122 [15]: 5.1 pM
IC50, cell survival, Jurkat (72) [15]: 17.2 pM
IC50, cell survival, M30 [15]: > 10000 pM
IC50, cell survival, MiaPaCa-2 [15]: 18.5 pM
IC50, cell survival, Panc-1 [15]: 229 pM
IC50, cell survival, T24 [15]: 44.7 pM
